# Substitutions are numbered along the chain they refer to. Numbers in names are those of the source.
# B1: bacteriophage T4 exonuclease DexA (enzyme, UniProt P04536 1-227, looked up)
# chain: MFDFIIDFETMGSGEKAAVIDLAVIAFDPNPEVVETFDELVSRGIKIKFDLKSQKGHRLFTKSTIEWWKNQSPEARKNIAPSDEDVSTIDGIAKFNDYINAHNIDPWKSQGWCRGMSFDFPILVDLIRDIQRLNGVSENELDTFKLEPCKFWNQRDIRTRIEALLLVRDMTTCPLPKGTLDGFVAHDSIHDCAKDILMMKYALRYAMGLEDAPSEEECDPLSLPTKR
# notes: DexA (dexA gene product), 3'-5' exonuclease of bacteriophage T4, amplified from the T4 genome; 26.0 kDa per monomer; Exists in a dimer-tetramer equilibrium that depends on temperature, so copies is left empty; also called ExoD; wild-type DexA; source: E. coli BL21(DE3), pET46, purified (Ni-NTA, SEC)
# B2: DexA^S87A/D90A (enzyme, bacteriophage T4, UniProt P04536 1-227, looked up)
# chain: B1 chain with S87A, D90A
# notes: DexA of bacteriophage T4 with S87A and D90A, made by site-directed mutagenesis of the dexA plasmid; Full length is said of the native protein only; the mutant was made from the same plasmid; also called dimeric mutant; contact 2 mutant; source: E. coli BL21(DE3), pET46, purified (Ni-NTA, SEC)
# B3: DexA^D181A/S72A (enzyme, bacteriophage T4, UniProt P04536 1-227, looked up)
# chain: B1 chain with S72A, D181A
# notes: DexA of bacteriophage T4 with D181A and S72A, made by site-directed mutagenesis of the dexA plasmid; Full length is said of the native protein only; the mutant was made from the same plasmid; also called contact 1 mutant; source: E. coli BL21(DE3), pET46, purified (Ni-NTA, SEC)
# How the values were obtained:
# [1] = biological target: the molecule itself; test: native gel or EMSA; native gel electrophoresis of purified DexA after SEC, room temperature
# [2] = biological target: the molecule itself; test: SEC; Superdex 200 HiLoad 26/600, PBS buffer, room temperature 22°C; size estimated from the elution volume
# [3] = biological target: the molecule itself; test: cryo-EM structure; single-particle cryo-EM, 2D classification of conformers; 5 μM, incubated at 37°C for 1 h
# [4] = biological target: the molecule itself; test: SEC-MALS; Superdex 75 10/300 GL, 0.5 ml/min, 25°C
protein,measurement,setting,value
B1,stoichiometry N,[1],4
same,stoichiometry N,[2],≥ 2
same,stoichiometry N,[3],2
B2,stoichiometry N,[4],2
B3,binding result,[4],binds

# Reference: article PMC12153337, “A temperature-driven DNA discrimination strategy to distinguish E. coli DNA and phage 5hmC-modified DNA” (Nucleic Acids Research, 2025)
